From US20220177604A1 (ARGENX, published 2022)
Where a chain is given by its changes, count along the chain named.

Tests used:
[1] = molecular target: T1, human immunoglobulin E (hIgE) (human, UniProt P01854-1 1-428); experiment: competition ELISA, biotin-hIgE to coated hFcεRIα, pH 7.4
T1 construct: also called human IgE; Native IgE (Abcam)
Description: (§1) The IC50 values of each compound were calculated with a non-linear regression (log(agonist) vs. response Variable slope (four parameters)).

[2] = molecular target: T1, human immunoglobulin E (hIgE); experiment: SPR competition, hIgE + mAb over hFcεRIα chip, pH 6 (text: pH 5.5)
Description: (§2) For this purpose, a competition approach was set-up. […] The assay was performed in HBS-EP pH7.4 or HBS-EP pH 5.5. Raw data were analyzed via BIA evaluation software with a blank subtraction (2-1). […] The IC50 values of each compound were calculated with a non-linear regression (log(agonist) vs. response Variable slope (four parameters)).

[3] = molecular target: T1, human immunoglobulin E (hIgE); experiment: competition ELISA
Description: as §1

[4] = molecular target: T1, human immunoglobulin E (hIgE); experiment: SPR competition
Description: as §2

[5] = molecular target: T1, human immunoglobulin E (hIgE); experiment: SPR competition, hIgE + mAb over hFcεRIα chip, pH 7.4
Description: as §2

[6] = molecular target: T1, human immunoglobulin E (hIgE); experiment: competition ELISA, biotin-hIgE to coated hFcεRIα, pH 6
Description: as §1

[7] = molecular target: T1, human immunoglobulin E (hIgE); experiment: competition ELISA, hIgE to coated hFcεRIα, pH 7.4
Description: (§3) The IC50 values of each antibody were calculated with a non-linear regression (log(agonist) vs. response Variable slope (four parameters)).

[8] = molecular target: T1, human immunoglobulin E (hIgE); experiment: competition ELISA, hIgE to coated hFcεRIα, pH 6
Description: as §3

[9] = molecular target: T2, recombinant Motavizumab human IgE (rMota-hIgE) (human, UniProt P01854 1-428); experiment: ELISA: rMota-hIgE captured on coated RSV-F, washes at pH 7.4, anti-human Fc-HRP; EC50 unit inferred, x axis in pM
T2 construct: also called Recombinant IgE (argenx)
Description: (§4) Briefly a Maxisorp plate was coated with recombinant human respiratory syncytial virus protein F (RSV-F) (0.5 μg/mL), then blocked with PBS with 3% BSA and 0.05% Tween. […] After several washing steps at pH 7.4 or pH 5.5, detection of the bound mAbs was carried out with an anti-human Fc-HRP antibody.

[10] = molecular target: T2, recombinant Motavizumab human IgE …; experiment: ELISA: rMota-hIgE captured on coated RSV-F, washes at pH 5.5, anti-human Fc-HRP; EC50 unit inferred, x axis in pM; curve reaches only OD450 about 0.85 at about 670 pM
Description: as §4

[11] = molecular target: T2, recombinant Motavizumab human IgE …; experiment: ELISA: rMota-hIgE captured on coated RSV-F, washes at pH 5.5, anti-human Fc-HRP; EC50 unit inferred, x axis in pM
Description: as §4

[12] = molecular target: T1, human immunoglobulin E (hIgE); experiment: SPR, Fab periplasmic extract, pH 7.4
[13] = molecular target: T2, recombinant Motavizumab human IgE …; experiment: SPR, Fab periplasmic extract, pH 7.4
[14] = molecular target: T2, recombinant Motavizumab human IgE …; experiment: ELISA: rMota-hIgE captured on coated RSV-F, washes at pH 5.5, anti-human Fc-HRP; EC50 unit inferred, x axis in pM; remark: listed apart in the source
Description: as §4

[15] = molecular target: T2, recombinant Motavizumab human IgE …; experiment: ELISA: rMota-hIgE captured on coated RSV-F, washes at pH 7.4, anti-human Fc-HRP; EC50 unit inferred, x axis in pM; remark: listed apart in the source
Description: as §4

[16] = molecular target: T2, recombinant Motavizumab human IgE …; experiment: as above; remark: listed apart in the source
Description: as §4

[17] = molecular target: T2, recombinant Motavizumab human IgE …; experiment: ELISA: rMota-hIgE captured on coated RSV-F, washes at pH 5.5, anti-human Fc-HRP; EC50 unit inferred, x axis in pM; remark: listed apart in the source
Description: as §4

[18] = molecular target: T1, human immunoglobulin E (hIgE); experiment: SPR competition, hIgE over hFcεRIα chip, pH 5.5
Description: (§5) The assay was performed in HBS-EP pH7.4 or HBS-EP pH 5.5. Raw data were analyzed via BIA evaluation software with a blank subtraction (2-1). […] The IC50 values of each compound were calculated with a non-linear regression (log(agonist) vs. response Variable slope (four parameters)).
(§6) Raw data were analyzed via BIA evaluation software with a blank subtraction (2-1). […] The IC50 values of each compound, calculated with a non-linear regression (log(agonist) vs. response Variable slope (four parameters)).

[19] = molecular target: T1, human immunoglobulin E (hIgE); experiment: SPR competition, hIgE over hFcεRIα chip, pH 7.4
Description: as §5, §6

T1 sequence (P01854 whole entry): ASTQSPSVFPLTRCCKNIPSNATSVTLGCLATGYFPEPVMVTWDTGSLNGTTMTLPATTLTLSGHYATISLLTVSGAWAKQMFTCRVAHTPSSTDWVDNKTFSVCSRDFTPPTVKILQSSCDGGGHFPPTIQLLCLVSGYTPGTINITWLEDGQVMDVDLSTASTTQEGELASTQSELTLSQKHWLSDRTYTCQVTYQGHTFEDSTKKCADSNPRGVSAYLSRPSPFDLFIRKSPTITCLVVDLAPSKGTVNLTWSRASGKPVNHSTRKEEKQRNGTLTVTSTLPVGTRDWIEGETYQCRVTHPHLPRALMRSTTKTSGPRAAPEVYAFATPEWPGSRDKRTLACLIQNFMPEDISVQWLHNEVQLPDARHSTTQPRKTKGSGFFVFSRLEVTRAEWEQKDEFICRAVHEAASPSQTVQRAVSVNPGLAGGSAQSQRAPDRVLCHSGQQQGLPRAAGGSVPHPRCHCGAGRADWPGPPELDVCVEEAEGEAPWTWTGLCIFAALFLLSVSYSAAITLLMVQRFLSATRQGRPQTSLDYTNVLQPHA
T2 sequence (P01854 other isoform, or with tags, fused parts or gaps limits assumed, form in doubt): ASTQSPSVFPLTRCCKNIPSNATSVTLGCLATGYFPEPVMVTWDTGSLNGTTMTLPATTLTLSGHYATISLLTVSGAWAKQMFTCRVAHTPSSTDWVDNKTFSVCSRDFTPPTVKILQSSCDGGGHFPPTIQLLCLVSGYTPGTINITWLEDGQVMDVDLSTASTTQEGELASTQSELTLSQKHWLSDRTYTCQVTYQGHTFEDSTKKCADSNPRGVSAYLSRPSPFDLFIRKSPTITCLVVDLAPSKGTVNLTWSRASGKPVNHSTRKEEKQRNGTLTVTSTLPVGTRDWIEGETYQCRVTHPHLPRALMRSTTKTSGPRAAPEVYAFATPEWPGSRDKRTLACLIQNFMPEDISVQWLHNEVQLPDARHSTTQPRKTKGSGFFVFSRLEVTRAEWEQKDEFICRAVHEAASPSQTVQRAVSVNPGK

B1: 3A1 human IgG1 mAb (antibody, V domains shown)
VH: EVQVQESGGGLVQPGGSLRLSCAASGFTFDNYAMSWVRQAPGKGLEWVSAISWNGGSTYYAESMKGRFTISRDNAKNMLYLQMNSLKSEDTAVYYCAKDLLVAARGGMDYWGKGTLVTVSS
VL: SSALTQPSAVSVSLEQTARITCQGGTLGSYGAHWYQQKPGQAPVLLIYGDNSRPSGIPERFSGTRSGGTATLTISGAQAEDEADYYCQSFDYSGNAVFGGGTHLTVL
notes: human IgG1 and human light chain constant domains; also called clone 3A1
[1]
  IC50: 152 nM
[2]
  IC50: 6.91 nM
[3]
  Ratio pH 6/7.4 (IC50): 1
[4]
  Ratio pH 6/7.4 (IC50): 1.5
[5]
  IC50: 4.76 nM
[6]
  IC50: 148 nM

B2: 18E2_VL Y34H_MG (antibody, V domains shown)
VH: QLLESGGGLVQPGGSLRLSCAASGFTFSSYVMSWVRQAPGKGLEWVSSIYHDGSHTYYADFVKGRFTISRDNSKNTLYLQMNSLRAEDTAVYYCAKGTSYSGSYYYTDPFFGSWGQGTLVTVSS
VL: SSELTQDPAVSVALGQTVRITCQGDRLGSRYIHWYQQKPGQAPVLVIYDDDRRPSGIPDRFSGSSSGNTASLTITGAQAEDEADYYCQSADSSGNPVFGGGTQLTVL
notes: germlined clone
[7]
  IC50: 0.706 µg/mL
[8]
  IC50: 61.4 µg/mL

B3: 18E2His2-hIgG1-WT (antibody, V domains shown)
VH: QLQLVESGGGLVQPGGSLRLSCAASGFTFSSYVMHWVRQAPGKGLEWVSSIYHDGSHTYYADFVKGRFTISRDNAKNTLYLQMNSLKSEDTAVYYCASGTSYSGSYYYTDPFFGSWGQGTQVTVSS
VL: NFMLTQPSALSVTLGQTARITCQGDRLGSRYIHWYQQKPPQAPVLVIHDDDRRPSGIPERFSGSSSGGTATLTISGAQAEDDGDYYCQSADSSGNPVFGGGTHLTVL
[9]
  EC50: 0.365 nM
[10]
  EC50: ~4210 nM

B4: 13E4_MG (antibody, V domains shown)
VH: B3 VH with Q1E, L2V, V5L, H35S, A75S, K87R, S88A, S98K, Q121L
VL: B2 VL with D25G, R26S, R30N, I32A, H33Y, R52S, S93N, P96A
notes: germlined clone; also called germlined 13E4
[7]
  IC50: 0.0242 µg/mL
[8]
  IC50: 0.0633 µg/mL

B5: 18E2_H S35H_MG (antibody, V domains shown)
VH: B3 VH with Q1E, L2V, V5L, A75S, K87R, S88A, S98K, Q121L
VL: B2 VL with H33Y
notes: germlined clone
[7]
  IC50: 0.0657 µg/mL
[8]
  IC50: 0.671 µg/mL

B6: 18E2His2-hIgG1-ABDEG (antibody, V domains shown)
VH: B3 VH
VL: B3 VL
notes: human IgG1 heavy chain with ABDEG mutations (pUPEX32a); also called 18E2His2-ABDEG
[9]
  EC50: 0.121 nM
[11]
  EC50: 0.616 nM

B7: 18E2His2_MG (antibody, V domains shown)
VH: B3 VH with Q1E, L2V, V5L, A75S, K87R, S88A, S98K, Q121L
VL: B2 VL
notes: also called 18E2VHS35HVLY34HMG
[7]
  IC50: 3.91 µg/mL
[8]
  IC50: ~11300 µg/mL

B8: 16E4 human IgG1 mAb (antibody, V domains shown)
VH: EVQLVESGGGLVQPGGSLRLSCAASGFTFSSYYMSWVRQAPGKGLEWVSSIYSDGSYAYYADSVKGRFTISRDNAKNTLYLQMNSLKSEDTAVYYCAKDLKARYSGTYHDEGYDYWGQGTQVTVSS
VL: SSALTQPSALSVTLGQSAKITCQGGSLGATYAYWYQQKPGQAPVLVIYDDDSRPSGIPERFSGSSSGGRATLTISGAQAEDEGDYYCQSAYSNGNAVFGGGTHLTVL
notes: also called clone 16E4
[1]
  IC50: 58 nM
[2]
  IC50: 5.17 nM
[3]
  Ratio pH 6/7.4 (IC50): 2.7
[4]
  Ratio pH 6/7.4 (IC50): 1.2
[5]
  IC50: 4.25 nM
[6]
  IC50: 156 nM

B9: omalizumab variant Fab VH15 / VL3 (Fab, V domains shown)
VH: EVQLVESGGGLVQPGGSLRLSCAVSGYSITSGHRWEWIRQAPGKGLEWVASIHYDGSTNYNPSVKGRITISRDDSKNTFYLQMNSLRAEDTAVYYCARATHYFGHWHFAVWGQGTLVTVSS
VL: DIQLTQSPSSLSASVGDRVTITCRASQSVDYDGDSYMNWYQQKPGKAPKLLIEWGSYLRSGVPSRFSGSGSGTDFTLTISSLQPEDFATYYCQQNAEDPYTFGQGTKVEIK
[12]
  Off-rate improvement ratio (against VHWT VLWT): 14.8
  R0 (RU): 235 RU
  koff: 0.00035 s⁻¹
[13]
  Off-rate improvement ratio (against VHWT VLWT): 18
  R0 (RU): 285 RU
  koff: 0.000269 s⁻¹

B10: 18B9His-hIgG1-WT (antibody, V domains shown)
VH: QVQLVESGGGLVQPGGSLRLSCAASGFTFSSYVMSWVRQAPGKGLEWVSSIYSDGSHTYYADSVKGRFTISRDNAKNTLYLQMNSLKSEDTAVYYCAKNLEHYSGSYYYTDPRYDYWGQGTQVTVSS
VL: SSALTQPSALSVTLGQTAKITCQGGSLGSSYVHWYQQKPGQAPVLVIHDGDSRPSGIPERFSGSSSGGTATLTISGAQAEDEDDYYCQSADSSGNAVFGGGTHLTVL
notes: also called VL18B9_Y49H; 18B9-His-WT
[14]
  EC50: 0.115 nM
[15]
  EC50: 0.142 nM

B11: 18B9His-hIgG1-ABDEG (antibody, V domains shown)
VH: B10 VH
VL: B10 VL
notes: also called 18B9His ABDEG; 18B9-hIgG1-ABDEG
[14]
  EC50: 0.149 nM
[15]
  EC50: 0.119 nM

B12: 20D5 human IgG1 mAb (antibody, V domains shown)
VH: B10 VH with V2L, T28A, S35T, G66D, Y80F, N99D, L100A, H102Y, P112T, R113K
VL: B10 VL with V32A, H48Y, D49A, G50D, D83G
notes: also called clone 20D5
[1]
  IC50: 35.2 nM
[2]
  IC50: 3.83 nM
[3]
  Ratio pH 6/7.4 (IC50): 1.1
[4]
  Ratio pH 6/7.4 (IC50): 1.1
[5]
  IC50: 3.38 nM
[6]
  IC50: 39.1 nM

B13: 13E4-hIgG1-WT (antibody, V domains shown)
VH: B3 VH with Q1E, H35S
VL: B8 VL with S1H, L4V, S17T, A29S, T30N, R69T, Y91D
notes: also called clone 13E4
[16]
  EC50: 0.0913 nM
[17]
  EC50: 0.0938 nM

B14: 3D6 human IgG1 mAb (antibody, V domains shown)
VH: B8 VH with E1Q, S35T, Y57N, A58T, Y80H, T107S
VL: B10 VL with S1Q, V32A, H48Y, G50D, T69R, D83G, A96P, H103K
notes: human IgG1 and human light chain constant domains; also called clone 3D6
[1]
  IC50: 75.4 nM
[2]
  IC50: 8.04 nM
[3]
  Ratio pH 6/7.4 (IC50): 2.8
[4]
  Ratio pH 6/7.4 (IC50): 1.8
[5]
  IC50: 4.37 nM
[6]
  IC50: 214 nM

B15: 13E4-hIgG1-ABDEG (antibody, V domains shown)
VH: B3 VH with Q1E, H35S
VL: B8 VL with S1H, L4V, S17T, A29S, T30N, R69T, Y91D
notes: human IgG1 heavy chain with ABDEG mutations (pUPEX32a); also called 13E4-ABDEG
[16]
  EC50: 0.11 nM
[17]
  EC50: 0.122 nM

B16: 18B9His_MG (antibody, V domains shown)
VH: B10 VH with Q1E, V5L, A75S, K87R, S88A, Q122L
VL: B2 VL with D25G, R26S, R30S, I32V, D50G, R52S, P96A
[7]
  IC50: 0.176 µg/mL
[8]
  IC50: 1.74 µg/mL

B17: 18B9 human IgG1 mAb (antibody, V domains shown)
VH: B10 VH
VL: B10 VL with H48Y
notes: human IgG1 and human light chain constant domains; also called clone 18B9
[18]
  IC50: 1.07 µg/mL
[1]
  IC50: 41.9 nM
[2]
  IC50: 5.65 nM
[3]
  Ratio pH 6/7.4 (IC50): 2.7
[4]
  Ratio pH 6/7.4 (IC50): 1.4
[19]
  IC50: 0.662 µg/mL
[5]
  IC50: 4.09 nM
[6]
  IC50: 112 nM
